Measurements published in article doi:10.1101/2020.03.16.993188 (bioRxiv, 2020).
Like-named read-outs stand apart in the source and are kept apart here.

B1: Synechocystis sp. PCC 6803 GCS P-protein (glycine decarboxylase), recombinant (enzyme)
chain: MPNLEPAVVVPTSEAIAVDLTKLEEKLAPADSFLDRHLGPGETEQRQMLQTLGFDTLGDLIDQAVPPAIRFPRSLQLPASQSEYGAIAQLKSIASKNQVFRSYIGMGYYDTITPPVIQRNILENPGWYTAYTPYQAEIAQGRLEALLNFQTMVMDLTGLEIANASLLDEGTAAAEAMALSYGVSKSKANAFFVAQDCHPQTIEVIKTRANPLGIEVIVGDHHTFSFSTSIFGALLQYPATDGAVYDYRSFIDKAHQHQALVTLAADPLSLTLLTPPGELGADIAVGSTQRFGIPLGYGGPHAAYFATKAEYQRKMPGRIVGVSKDAHGNPALRLALQTREQHIRRDKATSNICTAQVLLAVMASMYGVYHGSTGLKNIALRIHQLTVLLAIGLKRLNYSLNNDYFFDTLRVGVGEQSAPAILKAAEGRGINLRPLVPGEVGISLDETVTVQDLLDLWQVFAGKDNLPFTPEELWSEVKTSFPADLTRQSLYLQDAVFNQYHSETELLRYLHQLESKDLALNTSMIPLGSCTMKLNATAEMMPVTWPEFGKIHPFAPAGQTEGYQILFAQLEAWLGEITGFDAISLQPNAGSQGEYAGLQVIRQYHLSRGEEQRNICLIPESAHGTNPASAVMCGMQVVPVKCDGEGNIDVEDLTSKAEKYGDRLAALMVTYPSTHGVFEATIGTICDIVHRFGGEVYMDGANMNAQVGLCRPADFGADVCHLNLHKTFCIPHGGGGPGMGPIGVKSHLQAFLPRTSLNSTAELQAEDQSIGMISAAPYGSASILVISWMYIAMMGPQGLTKATEVAILSANYMAKRLENYYPILFRGNNELVAHECILDLRPLKKQAAIEVEDVAKRLMDFGFHAPTVSWPVLGTMMVEPTESESLGELDRFCDAMIAIYQEAQAITHGEIDPADNPLKNAPHTAQSLICGEWNHPYSQEEAAYPAPWTKQFKFWPAVGRINNTYGDRHLVCSCEGMEAYKEG
B2: Synechocystis sp. PCC 6803 GCS T-protein (aminomethyltransferase), recombinant (enzyme)
chain: MANLFPALRTPLYNLITEQTTKLTTFGGWEMPVQFAGLKQEHQAVREKVGMFDISHMGKFVLTGQKVLAALQSLVPSDLDRLTPGKAQYTVLLNAQGGIIDDIIVYDQGKNPEGQERVTLIVNAATTVKDKQWLLEHLPEEIDFQDLSREKVLIALQGPEALTILQPLVDQNLGELPAFGHLEAEFLREKAFIARTGYTGEDGFEIMVSPEVGKQLWQTFGSKGVTPCGLGARDTLRLEAGMGLYGQDMNDETTPLEAGLGWLVHLDSKGDFIGRAVLTEQKANGVEKRLVGLEMLAKQIARHDYPILHNGEIMGIVTSGTLSPTLQKAIALGYVPTELAKVGQELEVEVRGKTYGIKVVKKLFYRSEQKPR
B3: Synechocystis sp. PCC 6803 GCS L-protein (dihydrolipoamide dehydrogenase), recombinant (enzyme)
chain: MSQDFDYDLVIIGAGVGGHGAALHAVKCGLKTAIIEAKDMGGTCVNRGCIPSKALLAASGRVREMSDQDHLQQLGIQINGVTFTREAIAAHANDLVSKIQSDLTNSLTRLKVDTIRGWGKVSGPQEVTVIGDNETRILKAKEIMLCPGSVPFVPPGIEIDHKTVFTSDEAVKLETLPQWIAIIGSGYIGLEFSDVYTALGCEVTMIEALPDLMPGFDPEIAKIAERVLIKSRDIETYTGVFATKIKAGSPVEIELTDAKTKEVIDTLEVDACLVATGRIPATKNLGLETVGVETDRRGFIEVNDQMQVIKDGKPVPHLWAVGDATGKMMLAHAASGQGVVAVENICGRKTEVDYRAIPAAAFTHPEISYVGLTEAQAKELGEKEGFVVSTAKTYFKGNSKALAEKETDGIAKVVYRQDTGELLGAHIIGIHASDLIQEAAQAIADRKSVRELAFHVHAHPTLSEVLDEAYKRAV

Assays:
SEC [1] = target: the molecule itself; experiment: SEC
[2] = target: B3; experiment: molecular mass cut-off filtration
native gel or EMSA = target: the molecule itself; experiment: native gel or EMSA
[3] = target: B1; experiment: molecular mass cut-off filtration
[4] = target: B2; experiment: SEC
SEC [5] = target: the molecule itself; experiment: SEC; remark: listed apart in the source
[6] = target: B2; experiment: SEC; remark: listed apart in the source

Binder | stoichiometry N (SEC [1]) | stoichiometry N [2] | binding result (native gel or EMSA) | binding result [3] | stoichiometry N [4] [H per T] | stoichiometry N (SEC [5]) | stoichiometry N [6] [H per T]
B1 | 2 | ~0.25 P2 dimer per L2 dimer |  |  |  |  | 
B2 |  | ~3 T per L2 dimer | binds | binds |  |  | 
Synechocystis sp. PCC 6803 GCS H-protein, recombinant, lipoylated holoprotein (natural protein, lipoyl cofactor on the lipoyl-binding lysine (full lipoylation confirmed by native PAGE); residue number not given) MELEHPDDLYYLDSHEYVRFDGETATIGLSAFAVDELGDIVFVELPEEGDKVEFEQSMGAVESVKAASDLYSPVTGTVIEKNSALEDQPELLNQDPYGEEGWLIKVRLDDVEDAKEGLMAAGDYRATLETGD | ~4 | ~26 H per L2 dimer |  | binds | ~2 | 2 | ~4
B3 | 2 |  |  |  |  |  | 
